Targets include HAc peptide (Influenza A virus); Bovine serum albumin (bovine, UniProt P02769 25-607); HSA (UniProt P02768 25-609); Human hemoglobin (human, UniProt P69905 2-142; P68871 2-147).
Assay in all cases: ELISA, antigen coated on the plate
In the next experiment the target is T1, TP41-1 peptide (HIV-1).
T1 peptide: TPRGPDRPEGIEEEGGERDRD

HSA, sequence (P02768 25-609): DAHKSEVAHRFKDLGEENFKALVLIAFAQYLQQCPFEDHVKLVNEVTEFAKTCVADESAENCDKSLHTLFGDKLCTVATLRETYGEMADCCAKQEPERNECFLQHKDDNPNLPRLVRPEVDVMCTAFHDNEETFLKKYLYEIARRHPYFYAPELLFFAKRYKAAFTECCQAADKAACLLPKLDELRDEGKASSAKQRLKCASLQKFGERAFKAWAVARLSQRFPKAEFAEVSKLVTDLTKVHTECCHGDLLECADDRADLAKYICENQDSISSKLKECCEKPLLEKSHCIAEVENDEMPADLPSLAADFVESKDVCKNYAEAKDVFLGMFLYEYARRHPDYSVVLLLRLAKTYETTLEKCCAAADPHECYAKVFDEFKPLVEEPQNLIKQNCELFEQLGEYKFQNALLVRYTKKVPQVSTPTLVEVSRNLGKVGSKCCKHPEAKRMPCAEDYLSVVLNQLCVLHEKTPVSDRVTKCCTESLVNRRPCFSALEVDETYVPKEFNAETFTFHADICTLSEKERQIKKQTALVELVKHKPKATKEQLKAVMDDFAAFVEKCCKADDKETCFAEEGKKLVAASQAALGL
Human hemoglobin, sequence (P69905 2-142 limits assumed, chain 1 of 2): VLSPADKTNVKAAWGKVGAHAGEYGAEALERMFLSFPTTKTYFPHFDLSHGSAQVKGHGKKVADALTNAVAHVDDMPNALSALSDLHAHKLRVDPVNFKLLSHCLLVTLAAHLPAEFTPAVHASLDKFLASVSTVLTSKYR
Human hemoglobin, sequence (P68871 2-147 limits assumed, chain 2 of 2): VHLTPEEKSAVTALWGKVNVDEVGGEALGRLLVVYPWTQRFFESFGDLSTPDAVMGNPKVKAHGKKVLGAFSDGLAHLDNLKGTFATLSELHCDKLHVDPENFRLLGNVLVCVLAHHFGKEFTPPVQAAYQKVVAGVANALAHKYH
Bovine serum albumin, sequence (P02769 25-607 limits assumed): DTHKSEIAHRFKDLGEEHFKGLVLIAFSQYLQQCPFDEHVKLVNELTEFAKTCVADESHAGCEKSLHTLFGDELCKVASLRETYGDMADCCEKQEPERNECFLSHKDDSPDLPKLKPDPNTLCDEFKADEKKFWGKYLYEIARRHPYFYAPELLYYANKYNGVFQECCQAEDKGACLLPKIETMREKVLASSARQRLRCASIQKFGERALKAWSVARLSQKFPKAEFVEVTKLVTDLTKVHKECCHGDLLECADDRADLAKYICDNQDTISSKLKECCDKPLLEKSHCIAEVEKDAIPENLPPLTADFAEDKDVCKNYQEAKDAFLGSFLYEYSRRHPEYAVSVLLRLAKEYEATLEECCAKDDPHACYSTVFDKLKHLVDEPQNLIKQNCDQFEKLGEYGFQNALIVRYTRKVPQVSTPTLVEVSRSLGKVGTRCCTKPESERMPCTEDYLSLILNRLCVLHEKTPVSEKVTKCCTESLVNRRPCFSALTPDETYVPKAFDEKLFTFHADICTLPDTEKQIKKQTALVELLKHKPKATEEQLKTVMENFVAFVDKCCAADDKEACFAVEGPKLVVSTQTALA

B1: InfA-15 monoclonal antibody (antibody, V domains shown)
VH: QVQLKESGPGLVAPSQSLSITCTVSGFSLTKSGLHWVRQPPGKGLEWLGVIWAGGSTDYNSALTSRLTITKDNSKSQIFFRLNSLQTADTAMYYCVRSTFLYAMDFWGQGTSVTVS
VL: DAVMTQTPLSLPVSLGDQASISCRSSPSLEHSNGNTYLNWYLQKPGQSPQLLIYRVSNRFSGVPDRFSGSGSGTDFTLKISRVEAEDLGVYFCLQVTHVPPTFGGGTKLEIKR
In the case of B1, the binding result in the experiment with HAc peptide, with Bovine serum albumin, with HSA, in the experiment with Human hemoglobin and with TP41-1 peptide was “no binding (tested: 4 μg/ml (coated antigen))” in each case.

The values above are taken from JP2011160681A (dated 2011).
